The source of these data is paper PMC5867032, “Interactions of WRKY15 and WRKY33 transcription factors and their roles in the resistance of oilseed rape to Sclerotinia infection”.

Numbering of substitutions follows the chain as printed.

The chains are these.
B1: 3x first W-box (W1) (dsDNA)
DNA 1: TCAAAGTCAAGGACTCAAAGTCAAGGACTCAAAGTCAAGGAC
DNA 2: GTCCTTGACTTTGAGTCCTTGACTTTGAGTCCTTGACTTTGA
B2: 3x third W-box (W3) (dsDNA)
DNA 1: CAACGGTCAAACTTCAACGGTCAAACTTCAACGGTCAAACTT
DNA 2: AAGTTTGACCGTTGAAGTTTGACCGTTGAAGTTTGACCGTTG
B3: W1m1 probe (dsDNA)
DNA 1: TCAAAGTCTAGGACACATGGTCTGACCATCTCCTCTCCTCCTCTTCTTCTCCATCTTCTAATTTTTTCAACGGTCAAACTT
DNA 2: AAGTTTGACCGTTGAAAAAATTAGAAGATGGAGAAGAAGAGGAGGAGAGGAGATGGTCAGACCATGTGTCCTAGACTTTGA
B4: W1m3 probe (dsDNA)
DNA 1: B3 DNA 1 with T7G, T9A
DNA 2: B3 DNA 2 with A73T, A75C
B5: W1m2 probe (dsDNA)
DNA 1: B3 DNA 1 with C8G, T9A
DNA 2: B3 DNA 2 with A73T, G74C
B6: W1m4 probe (dsDNA)
DNA 1: B3 DNA 1 with G6A, T9A
DNA 2: B3 DNA 2 with A73T, C76T
B7: W1m5 probe (dsDNA)
DNA 1: B3 DNA 1 with A5C, G6C, T7C, C8G, T9G, A10G
DNA 2: B3 DNA 2 with T72C, A73C, G74C, A75G, C76G, T77G
B8: Mt probe (three W-boxes mutated) (dsDNA)
DNA 1: TCAACCCGGGGGACACATGGTCCCGGGATCTCCTCTCCTCCTCTTCTTCTCCATCTTCTAATTTTTTCAACCCCGGGACTT
DNA 2: AAGTCCCGGGGTTGAAAAAATTAGAAGATGGAGAAGAAGAGGAGGAGAGGAGATCCCGGGACCATGTGTCCCCCGGGTTGA
B9: 3x second W-box (W2) (dsDNA)
DNA 1: TGGTCTGACCATCTTGGTCTGACCATCTTGGTCTGACCATCT
DNA 2: AGATGGTCAGACCAAGATGGTCAGACCAAGATGGTCAGACCA
B10: W-box probe (Fig 12b) (dsDNA)
DNA 1: B3 DNA 1 with T9A
DNA 2: B3 DNA 2 with A73T
B11: 33probe (WT) (dsDNA)
DNA 1: B3 DNA 1 with T9A
DNA 2: B3 DNA 2 with A73T
B12: GCC-box (dsDNA)
DNA 1: CATAAGAGCCGCCACT
DNA 2: AGTGGCGGCTCTTATG

T1 sequence (A0A291B474 entry or part of it): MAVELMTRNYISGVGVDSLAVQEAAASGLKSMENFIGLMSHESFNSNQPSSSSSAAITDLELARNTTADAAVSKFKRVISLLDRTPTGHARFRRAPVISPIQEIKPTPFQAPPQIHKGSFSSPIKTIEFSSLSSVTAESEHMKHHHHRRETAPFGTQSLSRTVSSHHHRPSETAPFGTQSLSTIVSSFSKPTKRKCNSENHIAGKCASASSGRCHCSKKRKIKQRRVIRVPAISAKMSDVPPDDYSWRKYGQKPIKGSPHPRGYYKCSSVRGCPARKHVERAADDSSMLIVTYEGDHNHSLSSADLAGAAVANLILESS

The first data set concerns the target T1, BnWRKY15 (Brassica napus, UniProt A0A291B474 1-319). As to the kind of experiment: EMSA; Beyotime EMSA binding buffer (composition, pH not stated), 40 nM Cy5 DNA probe, room temperature; 6% native PAGE in ice water bath. The conditions noted are these: protein: recombinant; tags: 6xHis (pET-32a fusion); label: Cy5.
Take B1: the binding result was “binds”.

Turning to B2, the binding result is “binds”.

On to B3, for which the binding result is listed as “binds”.

B4: the binding result is on record as “binds”.

Turning to B5, the binding result was “binds”.

Regarding B6, the binding result is on record as “binds”.

Take B7: the binding result is given as “binds”.

As to B8, the binding result was “no binding”.

Regarding B9, the binding result is “binds”.

The target of the next data set is T1, BnWRKY15. The data set is described as follows: EMSA; alone; also outcompetes equal BnWRKY33; Beyotime EMSA binding buffer (composition, pH not stated), 40 nM Cy5 DNA probe, room temperature; 6% native PAGE in ice water bath. Particulars: protein: recombinant; tags: 6xHis (pET-32a fusion); label: Cy5.
Take B10: the binding result is on record as “binds”.

The next data set has as its target T1, BnWRKY15. The data set is described as follows: EMSA; competed by unlabelled 33probe (12.5x, 25x); Beyotime EMSA binding buffer (composition, pH not stated), 40 nM Cy5 DNA probe, room temperature; 6% native PAGE in ice water bath. Particulars: protein: recombinant; tags: 6xHis (pET-32a fusion); label: Cy5.
B11: the binding result is reported as “binds”.

For the next data set, the target named is T1, BnWRKY15. As to the kind of experiment: competition; unlabelled competitor against Cy5-33probe; Beyotime EMSA binding buffer (composition, pH not stated), 40 nM Cy5 DNA probe, room temperature; 6% native PAGE in ice water bath. The conditions noted are these: protein: recombinant; tags: 6xHis (pET-32a fusion); label: unlabelled.
As to B12, the binding result was “no binding”.
